Experimental findings from patent US20240041922A1, “METHODS AND COMPOSITIONS” (Monash University, priority 2020, published 2024) are described below.

Entries after “also recorded” stand apart in the source; their conditions may differ.

Experiment [1] deals with wound-resident muscle stem cells. The experiment can be described thus: Larval zebrafish needle stab muscle injury, wound site proliferation (EdU). The class given is in vivo. The note with it: needle stab injury; for wound site muscle stem cell proliferation: agent alone. As for the experimental part: 4dpf larvae were anaesthetized in 0.01% tricaine (MS-222) (Sigma-Aldrich) in Ringer's solution. Mechanical injures were targeted either to the dorsal or ventral myotome above the cloaca when the larvae is oriented dorsal to the top, anterior to the left. Needle-stick injury was carried out as previously described (Gurevich, D. B. el al. Asymmetric division of clonal muscle stem cells co-ordinate muscle regeneration in vivo. Science 353 6295 aad9969 (2016)). Briefly, the myotome was subjected to a single 30-gauge needle puncture that generates an extensive injury with many damaged muscle fibres. For laser-induced injury, anaesthetised larvae were mounted in a thin layer of 1% low-melt agarose in Ringer's solution. Injuries were carried out using a UV-nitrogen laser pulsed through a coumarin 440 nm dye cell coupled to a Zeiss Axioplan microscope (MicroPoint Laser System, Andor Technology). On average a laser injury required pulses for 5-10 sec from laser beams focused through a 40× water immersion objective. For time-lapse analysis of the immediate response to injury, muscle fibre ablations were achieved using a SIM scanner (Olympus) at 790 nm and 200 msec dwell time at 100% laser power on an Olympus FVMPE-RS upright multi-photon microscope equipped with a 25×/1.05 water immersion objective. Injury-responding macrophages were tracked using the manual tracking plugin in Fiji.
Cell ablation was carried out as previously described (Pisharath, H. & Parsons, M. J. in Zebrafish 133-143 (Springer, 2009)) with minor modifications. Larvae at the appropriate stage were incubated in 5-10 mM metronidazole (Mtz) (Sigma-Aldrich) in Ringer's solution and daily refreshed until experimental end point. Drug treatments were carried out by incubating 4 dpf needle stick injured larvae in 5 and 10 μM cenicriviroc (CVC) (Med Chem Express) and 5 and 10 μM maraviroc (MVC) (Med Chem Express) in Ringer's solution immediately post injury and refreshed daily.
The effect of drug treatment on laser ablation muscle injury was assayed by treating larvae with 5 μM CVC for 2 h prior to injury and with larvae being maintained in the drug until experimental end point. […] Chemokine supplementation experiments were carried out in plasticware coated with 0.1% bovine serum albumin (BSA) overnight (rinsed in Ringer's solution prior to use) to minimise protein adsorption. Larvae were treated with 57 nM recombinant human visfatin (hrNAMPT(1)) (PeproTech), 57 nM recombinant murine CCL8/MCP-2 (mrCCL8) (PeproTech) and combinations with Mtz and CVC.
Larvae: Labelling and detection was carried out as previously described (Nguyen, P. D. et al. Muscle stem cells undergo extensive clonal drift during tissue growth via Meox1-mediated induction of G2 cell-cycle arrest. Cell Stem Cell 21, 107-119. e106 (2017))^55 with minor alteration. 6 dpf/2 dpi larvae were pulsed with 2.5 nM EdU (Thermo Fisher) for 1h and chased for a further 1.5 h prior to fixation. Cell culture: Cells were incubated for 1 h in media supplemented with 10 μM EdU. Following Edu pulse, C2C12 cells were fixed immediately, while primary mouse myoblast co-cultures were rinsed in PBS, replaced with media and incubated for a further 2 h following which the cells were fixed. Cells were processed using the Click-iT™ EdU Alexa Fluro™ 647 imaging Kit (Thermo Fisher) following the manufacturer's protocol.

The test system of another experiment is C2C12 myoblasts. Description: C2C12 myoblast proliferation (EdU incorporation). The note with it: 6 h in growth media. The class given is cell-based, mouse. Here is the method: Larvae: Labelling and detection was carried out as previously described (Nguyen, P. D. et al. Muscle stem cells undergo extensive clonal drift during tissue growth via Meox1-mediated induction of G2 cell-cycle arrest. […] Cell culture: Cells were incubated for 1 h in media supplemented with 10 μM EdU. […] Cells were processed using the Click-iTTM EdU Alexa FluroTM 647 imaging Kit (Thermo Fisher) following the manufacturer's protocol. The mouse muscle cell line […]. Serial passaging and differentiation of myogenic cells isolated from dystrophic mouse muscle. Nature 270, 725 (1977) were cultured in growth media (Dulbecco's Modified Eagle Medium (4.5 g/l D-Glucose, No L Glutamine, No Sodium Pyruvate (Gibco))+20% Fetal Bovine Solution-One Shot (Gibco)+1% Glut Max 100x (Gibco)). Cells were maintained at 37° C., 5% CO2. Cells at 70% confluence, passage 8 were extracted from T75 flasks with 0.025% Tryspin EDTA (Gibco), neutralised in growth media, spun at 180×g for 5 min to pellet cells. The cells were then resuspended in 10 ml of fresh growth media. 500 μl of cells were plated on a 8-well on cover glass II (Sarstedt) chamber slide at a density of 1×10^3 cells/ml. Cells were left 4 h at 37° C. to re-attach. For drug treatments, the media were supplemented with appropriate doses and cultured for 6 h.

A further experiment relates to CCR5. Description: NAMPTcif competition with NAMPT binding to CCR5. From the text: (§1) As described above NAMPT, is a large homodimeric intracellular enzyme which acts as cytokine when released in the extracellular milieu. […] Moreover, the domain extends out from the core protein structure potentially facilitating receptor binding.
The next experiment deals with satellite cells. The experiment can be described thus: Satellite cell stimulation with NAMPTcif (proliferation). The class given is cell-based. The note with it: compared to no stimulation control.
Excerpt: as §1

The target of experiment [2] is T1, human recombinant CCR5 (hrCCR5) (Homo sapiens, UniProt P51681).
T1 construct: purchased Abcam
T1 sequence (P51681 whole entry): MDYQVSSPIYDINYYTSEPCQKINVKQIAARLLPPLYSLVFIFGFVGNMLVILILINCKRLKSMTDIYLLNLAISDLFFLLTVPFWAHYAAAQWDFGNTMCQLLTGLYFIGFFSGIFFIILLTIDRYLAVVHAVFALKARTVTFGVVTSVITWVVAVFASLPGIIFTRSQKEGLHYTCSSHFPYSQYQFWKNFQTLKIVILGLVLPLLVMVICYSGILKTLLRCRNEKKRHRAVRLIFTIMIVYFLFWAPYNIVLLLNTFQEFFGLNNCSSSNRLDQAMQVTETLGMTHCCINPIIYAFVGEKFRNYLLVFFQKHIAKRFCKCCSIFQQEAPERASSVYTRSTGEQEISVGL
The experiment can be described thus: hrNAMPT binding to hrCCR5 (ELISA). The note with it: hrNAMPT(1) 0-800 nM on hrCCR5-coated ELISA plates, BSA binding deducted; read-out: dissociation constant (KD). Here is the method: hrNAMPT binding to hrCCR5: ELISA plates (Medium binding, Greiner Bio-One) were coated with 1% BSA or 20 nM of GST-fused recombinant human CCR5 (hrCCR5, Abcam) in PBS overnight at 4° C. Wells were blocked for 1 h at room temperature with 1% BSA in PBS containing 0.05% Tween-20 (PBS-T). Wells were washed 3 times with PBS-T and further incubated with hrNAMPT(1) (Peprotech) at increasing concentration (0 nM to 800 nM) for 1 h in PBS-T with 0.1% BSA.
On the technique in general: An ELISA detects its analyte on a solid surface through an enzyme-linked reagent.

The test system of the next experiment is PAX7+ satellite cells. The experiment can be described thus: Primary mouse myoblast mono- and co-cultures, PAX7+ satellite cell proliferation (EdU). It counts as cell-based. The conditions noted are these: myoblast monoculture (MB) and MB+3T3 co-culture, 24 h. Here is the method:
Larvae: Labelling and detection was carried out as previously described (Nguyen, P. D. et al. Muscle stem cells undergo extensive clonal drift during tissue growth via Meox1-mediated induction of G2 cell-cycle arrest. […] Cell culture: Cells were incubated for 1 h in media supplemented with 10 μM EdU. […] Cells were processed using the Click-iTTM EdU Alexa FluroTM 647 imaging Kit (Thermo Fisher) following the manufacturer's protocol. For isolation of primary mouse myoblasts, limb skeletal muscle from E17.5 C57/BL6J mice were minced and digested in 0.125% Trypsin at 37° C. for 20 min. […] Myoblasts were again depleted for fibroblasts prior to co-culturing on gelatin-coated 48 well plates in DMEM+20% FBS+10% L929-conditioned medium. 100,000 myoblasts were plated with either 7,500 MafB/c-Maf deficient (Maf-DKO) macrophages (Aziz, A., Soucie, E., Sarrazin, […]. MafB/c-Maf deficiency enables self-renewal of differentiated functional macrophages. […] For drug treatments, the media were supplemented with appropriate doses and cultured for 24 h.

B1: mrCCL8: recombinant murine CCL8/MCP-2 (PeproTech), canonical CCR5 ligand (protein)
chain: GPDKAPVTCCFHVLKLKIPLRVLKSYERINNIQCPMEAVVFQTKQGMSLCVDPTQKWVSEYMEILDQKSQILQP
B1: in experiment [1], the “increase in cell proliferation external to the site of injury vs control” value is 43.03±4.46%, the “proliferation external to the injury zone” value is on record as “also increased proliferation external to the injury zone” and the “wound site muscle stem cell proliferation” value is “functioned to increase proliferation in the wound site”. In addition, the “increase in muscle stem cell proliferation within the wound site vs control” value in experiment [1] (supplementation) was 28.34±4.48%. For the same molecule, the “myoblast proliferation, factor added alone” value (shortened to “myoblast proliferation”) with C2C12 myoblasts is “functioned to enhance C2C12 proliferation”. For the same molecule, in the experiment on C2C12 myoblasts (listed as CCL8/MCP-2), the “myoblast proliferation” value is on record as “could be recapitulated”.

B2: NAMPTcif: recombinantly produced C-terminal fragment of NAMPT, termed cytokine finger (cif) (protein)
chain: MSYVVTNGLGVNVFKDPVADPNKRSKKGRLSLHRTPAGNFVTLEEGKGDLEEYGHDLLHTVFKNGKVTKSYSFDEVRKNAQLNIEQDVAPHHHHHHH
In the case of B2, the “inhibition of NAMPT binding to CCR5” value with CCR5 is “inhibits the binding of NAMPT to CCR5”. Moreover, the satellite cell proliferation entry in the experiment on satellite cells is “promotes proliferation in a dose-dependent manner”; in the experiment with satellite cells (listed as cif) it was “stimulates satellite cell proliferation in a dose-dependent manner”.

B3: hrNAMPT(1): recombinant human visfatin (PeproTech) (protein)
chain: PPNTSKVYSYFECREKKTENSKLRKVKYEETVFYGLQYILNKYLKGKVVTKEKIQEAKDVYKEHFQDDVFNEKGWNYILEKYDGHLPIEIKAVPEGFVIPRGNVLFTVENTDPECYWLTNWIETILVQSWYPITVATNSREQKKILAKYLLETSGNLDGLEYKLHDFGYRGVSSQETAGIGASAHLVNFKGTDTVAGLALIKKYYGTKDPVPGYSVPAAEHSTITAWGKDHEKDAFEHIVTQFSSVPVSVVSDSYDIYNACEKIWGEDLRHLIVSRSTQAPLIIRPDSGNPLDTVLKVLEILGKKFPVTENSKGYKLLPPYLRVIQGDGVDINTLQEIVEGMKQKMWSIENIAFGSGGGLLQKLTRDLLNCSFKCSYVVTNGLGINVFKDPVADPNKRSKKGRLSLHRTPAGNFVTLEEGKGDLEEYGQDLLHTVFKNGKVTKSYSFDEIRKNAQLNIELEAAHH
For orientation: Kd means the free concentration of one partner at which half of the binding sites on the other are occupied at equilibrium, for simple one-to-one binding. As for B3, the Kd in experiment [2] came to 172 ± 18 nM. Besides, the “myoblast proliferation” value in the experiment with C2C12 myoblasts was “dose dependent increase in myoblast proliferation; also recorded: comparable and significant dose dependent increases in myoblast proliferation”.

B4: hrNAMPT(2): recombinant human visfatin (Enzo Life Sciences) (protein)
chain: MNPAAEAEFNILLATDSYKVTHYKQYPPNTSKVYSYFECREKKTENSKLRKVKYEETVFYGLQYILNKYLKGKVVTKEKIQEAKDVYKEHFQDDVFNEKGWNYILEKYDGHLPIEIKAVPEGFVIPRGNVLFTVENTDPECYWLTNWIETILVQSWYPITVATNSREQKKILAKYLLETSGNLDGLEYKLHDFGYRGVSSQETAGIGASAHLVNFKGTDTVAGLALIKKYYGTKDPVPGYSVPAAEHSTITAWGKDHEKDAFEHIVTQFSSVPVSVVSDSYDIYNACEKIWGEDLRHLIVSRSTQAPLIIRPDSGNPLDTVLKVLEILGKKFPVTENSKGYKLLPPYLRVIQGDGVDINTLQEIVEGMKQKMWSIENIAFGSGGGLLQKLTRDLLNCSFKCSYVVTNGLGINVFKDPVADPNKRSKKGRLSLHRTPAGNFVTLEEGKGDLEEYGQDLLHTVFKNGKVTKSYSFDEIRKNAQLNIELEAAHH
With B4, the “myoblast proliferation” value with C2C12 myoblasts was “dose dependent increase in myoblast proliferation; also recorded: comparable and significant dose dependent increases in myoblast proliferation”.

B5: mrCCL4: recombinant murine CCL4/MIP-1β (PeproTech), cognate CCR5 ligand (protein)
chain: APMGSDPPTSCCFSYTSRQLHRSFVMDYYETSSLCSKPAVVFLTKRGRQICANPSEPWVTEYMSDLELN
As for B5, in experiment [1], the “proliferation external to the injury zone” value was “failed to demonstrate discrimination between injury region and sites external to the damage”; the “wound site muscle stem cell proliferation” value is listed as “functioned to enhance proliferation”. Further, the “satellite cell proliferation on supplementation” value with PAX7+ satellite cells was “enhanced proliferation; also recorded: mirrored the results of NAMPT addition”. For the same molecule, in the experiment on C2C12 myoblasts, the “myoblast proliferation” value is reported as “functioned to enhance C2C12 proliferation”. In the experiment on C2C12 myoblasts (listed as CCL4/MIP-1β), the “myoblast proliferation” value was “could be recapitulated”.
